Kd data for 35 sequences are collected here from patent publication US20060193821.

The target of data set [1] is IL-23 (human, p19/p40 heterodimer) (Homo sapiens) (UniProt Q9NPF7+P29460). Briefly: filter.
The target in data set [2] is IL-12 (human, p35/p40 heterodimer) (Homo sapiens) (UniProt P29459+P29460). Put plainly: filter.
IL-12 (human, p35/p40 heterodimer) (Homo sapiens), sequence (P29459 23-219, chain 1 of 2): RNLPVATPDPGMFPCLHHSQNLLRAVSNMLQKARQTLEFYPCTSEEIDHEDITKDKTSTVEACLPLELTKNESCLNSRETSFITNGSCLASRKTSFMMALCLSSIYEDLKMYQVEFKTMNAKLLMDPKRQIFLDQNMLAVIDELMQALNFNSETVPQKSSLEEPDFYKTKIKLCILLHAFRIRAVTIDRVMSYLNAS
IL-12 (human, p35/p40 heterodimer) (Homo sapiens), sequence (P29460 23-328, chain 2 of 2): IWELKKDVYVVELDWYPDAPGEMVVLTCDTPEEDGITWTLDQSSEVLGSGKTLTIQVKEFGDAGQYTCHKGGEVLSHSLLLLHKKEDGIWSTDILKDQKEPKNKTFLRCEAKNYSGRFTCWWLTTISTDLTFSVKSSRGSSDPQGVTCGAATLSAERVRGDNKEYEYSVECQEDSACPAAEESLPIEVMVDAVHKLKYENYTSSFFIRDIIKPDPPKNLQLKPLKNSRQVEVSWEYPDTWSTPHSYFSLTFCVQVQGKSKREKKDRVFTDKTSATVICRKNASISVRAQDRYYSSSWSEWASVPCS

IL-23 (human, p19/p40 heterodimer) (Homo sapiens), sequence (Q9NPF7 20-189, chain 1 of 2): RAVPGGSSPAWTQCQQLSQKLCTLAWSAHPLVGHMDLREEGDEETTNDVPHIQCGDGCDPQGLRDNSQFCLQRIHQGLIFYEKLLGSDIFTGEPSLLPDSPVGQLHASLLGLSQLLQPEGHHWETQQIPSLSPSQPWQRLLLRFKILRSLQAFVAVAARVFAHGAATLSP
IL-23 (human, p19/p40 heterodimer) (Homo sapiens), sequence (P29460 23-328, chain 2 of 2): as the sequence (P29460 23-328, chain 2 of 2) above

For the sequence “ACAGGCAAGUAAUUGGGGAGUGCGGGCGGGGUGU [ARC1466]”, the Kd in data set [1] (deoxy A,G, 2'-OMe C,U, PEG spacers between stem 1 strands and core, 3'-idT, DPBS Ca Mg) stood at 1.9 nM. Take “ACAGGCAAGUAAUUGGGGAGUGCGGGCGGGGUGU [ARC1592]”: the Kd in data set [1] (deoxy A,G, 2'-OMe C,U, dI at G5, 3'-idT [dI at 5 (parent G), 2'-OMe C,U at 2,6,10,13,14,21,23,27,32,34, deoxy A,G elsewhere, 3'-inverted dT at 35], DPBS Ca Mg) is 8.1 nM.

In the case of “ACAGGCAAGUAAUUGGGGAGUGCGGGCGGGGUGU [ARC1593]”, the dissociation constant Kd in data set [1] (deoxy A,G, 2'-OMe C,U, dI at G4,G5, 3'-idT [dI at 4,5 (parent G), 2'-OMe C,U at 2,6,10,13,14,21,23,27,32,34, deoxy A,G elsewhere, 3'-inverted dT at 35], DPBS Ca Mg) worked out at 13.8 nM. Consider “ACAGGCAAGUAAUUGGGGAGUGCGGGCGGGGUGU [ARC1594]”, for which, in data set [1] (deoxy A,G, 2'-OMe C,U, dI at G9, 3'-idT [dI at 9 (parent G), 2'-OMe C,U at 2,6,10,13,14,21,23,27,32,34, deoxy A,G elsewhere, 3'-inverted dT at 35], DPBS Ca Mg), the Kd was found to be 4.2 nM. On to “ACAGGCAAGUAAUUGGGGAGUGCGGGCGGGGUGU [ARC1595]”, for which the Kd in data set [1] (deoxy A,G, 2'-OMe C,U, dI at G15, 3'-idT [dI at 15 (parent G), 2'-OMe C,U at 2,6,10,13,14,21,23,27,32,34, deoxy A,G elsewhere, 3'-inverted dT at 35], DPBS Ca …) worked out at 5.4 nM.

With “ACAGGCAAGUAAUUGGGGAGUGCGGGCGGGGUGU [ARC1596]”, the Kd in data set [1] (deoxy A,G, 2'-OMe C,U, dI at G16, 3'-idT [dI at 16 (parent G), 2'-OMe C,U at 2,6,10,13,14,21,23,27,32,34, deoxy A,G elsewhere, 3'-inverted dT at 35], DPBS Ca …) is 11.1 nM. “ACAGGCAAGUAAUUGGGGAGUGCGGGCGGGGUGU [ARC1597]”: the Kd in data set [1] (deoxy A,G, 2'-OMe C,U, dI at G17, 3'-idT [17], DPBS Ca Mg) worked out at 11.2 nM. “ACAGGCAAGUAAUUGGGGAGUGCGGGCGGGGUGU [ARC1598]” showed a dissociation constant Kd in data set [1] (deoxy A,G, 2'-OMe C,U, dI at G18, 3'-idT [18], DPBS Ca Mg) of 4.7 nM. Take “ACAGGCAAGUAAUUGGGGAGUGCGGGCGGGGUGU [ARC1599]”: the Kd in data set [1] (deoxy A,G, 2'-OMe C,U, dI at G15,G16, 3'-idT [15,16], DPBS Ca Mg) is 7.2 nM. Turning to “ACAGGCAAGUAAUUGGGGAGUGCGGGCGGGGUGU [ARC1600]”, the Kd in data set [1] (deoxy A,G, 2'-OMe C,U, dI at G16,G17, 3'-idT [16,17], DPBS Ca Mg) was determined as 15.6 nM. In data set [1] (deoxy A,G, 2'-OMe C,U, dI at G17,G18, 3'-idT [17,18], DPBS Ca Mg), “ACAGGCAAGUAAUUGGGGAGUGCGGGCGGGGUGU [ARC1601]” registered a Kd of 4.4 nM. Turning to “ACAGGCAAGUAAUUGGGGAGUGCGGGCGGGGUGU [ARC1602]”, the dissociation constant (Kd) in data set [1] (dRmY, deoxyinosine at G15-G18, 3'-idT [deoxyinosine at 15-18 (parent base G written), 2'-deoxy purines, 2'-OMe C/U (2,6,10,13,14,21,23,27,32,34), 3'-inverted dT at 35], dot blot, DPBS with Ca and Mg, 0.1 mg/mL BSA, 30 min RT) was 40.8 nM. The sequence “ACAGGCAAGUAAUUGGGGAGUGCGGGCGGGGUGU [ARC1603]” gave a Kd in data set [1] (deoxy A,G, 2'-OMe C,U, dI at G20, 3'-idT [20], DPBS Ca Mg) of 1.6 nM. In data set [1] (deoxy A,G, 2'-OMe C,U, dI at G22, 3'-idT [22], DPBS Ca Mg), “ACAGGCAAGUAAUUGGGGAGUGCGGGCGGGGUGU [ARC1604]” returned a Kd of 2.1 nM. “ACAGGCAAGUAAUUGGGGAGUGCGGGCGGGGUGU [ARC1605]” gave a Kd in data set [1] (deoxy A,G, 2'-OMe C,U, dI at G24, 3'-idT [24], DPBS Ca Mg) of 7.5 nM.

“ACAGGCAAGUAAUUGGGGAGUGCGGGCGGGGUGU [ARC1606]” gave a Kd in data set [1] (deoxy A,G, 2'-OMe C,U, dI at G25, 3'-idT [25], DPBS Ca Mg) of 5 nM.

“ACAGGCAAGUAAUUGGGGAGUGCGGGCGGGGUGU [ARC1607]” had a Kd in data set [1] (deoxy A,G, 2'-OMe C,U, dI at G26, 3'-idT [26], DPBS Ca Mg) of 3.3 nM.

Consider “ACAGGCAAGUAAUUGGGGAGUGCGGGCGGGGUGU [ARC1608]”, for which the Kd in data set [1] (deoxy A,G, 2'-OMe C,U, dI at G24,G25, 3'-idT [24,25], DPBS Ca Mg) worked out at 9.7 nM. With “ACAGGCAAGUAAUUGGGGAGUGCGGGCGGGGUGU [ARC1609]”, in data set [1] (deoxy A,G, 2'-OMe C,U, dI at G25,G26, 3'-idT [25,26], DPBS Ca Mg), the Kd turned out to be 4.7 nM. For “ACAGGCAAGUAAUUGGGGAGUGCGGGCGGGGUGU [ARC1610]”, in data set [1] (deoxy A,G, 2'-OMe C,U, dI at G24-G26, 3'-idT [dI at 24,25,26 (G parent), 2'-OMe C/U at 2,6,10,13,14,21,23,27,32,34, other A,G deoxy, 3'-inverted dT at 35], DPBS Ca Mg), the Kd stood at 5.2 nM. For the sequence “ACAGGCAAGUAAUUGGGGAGUGCGGGCGGGGUGU [ARC1611]”, in data set [1] (deoxy A,G, 2'-OMe C,U, dI at G28, 3'-idT [dI at 28 (G parent), 2'-OMe C/U at 2,6,10,13,14,21,23,27,32,34, other A,G deoxy, 3'-inverted dT at 35], DPBS Ca Mg), the Kd was found to be 1.7 nM. Regarding “ACAGGCAAGUAAUUGGGGAGUGCGGGCGGGGUGU [ARC1612]”, the Kd in data set [1] (deoxy A,G, 2'-OMe C,U, dI at G29, 3'-idT [dI at 29 (G parent), 2'-OMe C/U at 2,6,10,13,14,21,23,27,32,34, other A,G deoxy, 3'-inverted dT at 35], DPBS Ca Mg) was 1.9 nM. For the sequence “ACAGGCAAGUAAUUGGGGAGUGCGGGCGGGGUGU [ARC1613]”, the Kd in data set [1] (deoxy A,G, 2'-OMe C,U, dI at G30, 3'-idT [dI at 30 (G parent), 2'-OMe C/U at 2,6,10,13,14,21,23,27,32,34, other A,G deoxy, 3'-inverted dT at 35], DPBS Ca Mg) is 2.3 nM. In the case of “ACAGGCAAGUAAUUGGGGAGUGCGGGCGGGGUGU [ARC1614]”, the Kd in data set [1] (deoxy A,G, 2'-OMe C,U, dI at G31, 3'-idT [dI at 31 (G parent), 2'-OMe C/U at 2,6,10,13,14,21,23,27,32,34, other A,G deoxy, 3'-inverted dT at 35], DPBS Ca Mg) turned out to be 1.7 nM. With “ACAGGCAAGUAAUUGGGGAGUGCGGGCGGGGUGU [ARC1615]”, the Kd in data set [1] (deoxy A,G, 2'-OMe C,U, dI at G28,G29, 3'-idT [dI at 28,29 (G parent), 2'-OMe C/U at 2,6,10,13,14,21,23,27,32,34, other A,G deoxy, 3'-inverted dT at 35], DPBS Ca Mg) turned out to be 5.8 nM.

For the sequence “ACAGGCAAGUAAUUGGGGAGUGCGGGCGGGGUGU [ARC1616]”, the Kd in data set [1] (deoxy A,G, 2'-OMe C,U, dI at G29,G30, 3'-idT [dI at 29,30 (G parent), 2'-OMe C/U at 2,6,10,13,14,21,23,27,32,34, other A,G deoxy, 3'-inverted dT at 35], DPBS Ca Mg) was found to be 6.1 nM. Turning to “ACAGGCAAGUAAUUGGGGAGUGCGGGCGGGGUGU [ARC1617]”, in data set [1] (deoxy A,G, 2'-OMe C,U, dI at G30,G31, 3'-idT [dI at 30,31 (G parent), 2'-OMe C/U at 2,6,10,13,14,21,23,27,32,34, other A,G deoxy, 3'-inverted dT at 35], DPBS Ca Mg), the Kd came to 4.1 nM. Turning to “ACAGGCAAGUAAUUGGGGAGUGCGGGCGGGGUGU [ARC1618]”, the Kd in data set [1] (dRmY, deoxyinosine at G28-G31, 3'-idT [deoxyinosine at 28-31 (parent base G written), 2'-deoxy purines, 2'-OMe C/U (2,6,10,13,14,21,23,27,32,34), 3'-inverted dT at 35], dot blot, DPBS with Ca and Mg, 0.1 mg/mL BSA, 30 min RT) amounted to 34 nM. Consider “ACAGGCAAGUAAUUGGGGAGUGCGGGCGGGGUGU [ARC1619]”, for which, in data set [1] (deoxy A,G, 2'-OMe C,U, dI at G33, 3'-idT [dI at 33 (G parent), 2'-OMe C/U at 2,6,10,13,14,21,23,27,32,34, other A,G deoxy, 3'-inverted dT at 35], DPBS Ca Mg), the Kd was found to be 2.8 nM.

For the sequence “CGCAGGCAAGUAAUUGGGGAGUGCGGGCGGGGUGCG [ARC1467]”, in data set [1] (2'-OMe C,U and some stem G, PEG spacers between stem 1 strands and core, 3'-idT, DPBS Ca Mg), the dissociation constant (Kd) was determined as 1.7 nM.

Consider “GGGAAAAGCGAAUCAUACACAAGAGCGCUUUAGCGGGUAUAGCACUUUUCAUCUAAUGAANCCGUAGCUCCGCCAGAGACCAACCGAGAA [AMX86-H11]”, for which the dissociation constant (Kd) amounted to 215 nM in data set [2] (2'-F C,U, tRNA) and 367 nM in data set [1] (2'-F C,U, SHMCK, tRNA).

For the sequence “GGGAAAAGCGAAUCAUACACAAGAGGUUGAGUACGACGGAGUCNUGGCUAACACGGAAACUAGAGCUCCGCCAGAGACCAACCGAGAA [AMX86-B9]”, the Kd was determined as 848 nM in data set [2] (2'-F C,U, tRNA) and 23.7 nM in data set [1] (2'-F C,U, SHMCK, tRNA). Turning to “GGGAAAAGCGAAUCAUACACAAGAUGUUGAACCUCUUGUGCGUCCCGAUGUUUNGCAAUGUGGAGCUCCGCCAGAGACCAACCGAGAA [AMX86-F7]”, the Kd came to 106 nM in data set [2] (2'-F all C and U (rRfY), 1X SHMCK, 0.1 mg/mL tRNA, RT); 147 nM in data set [1] (2'-F all C and U (rRfY), 1X SHMCK, 1 mM Mg, 1 mM Ca, 0.1 mg/mL tRNA, RT). On to “GGGAAAAGCGAAUCCUACCCAAGAUGUUGUUGGCGUUGAUCGUAUGAUUNAUGGAGNGUGUCNGUGCUCCGCCAGAGACCAACCGAGAA [AMX86-E7]”, for which the Kd in data set [2] (2'-F C,U, tRNA) stood at 268 nM; in data set [1] (2'-F C,U, SHMCK, tRNA), 210 nM. With “GGGAGAGGAGAGAACGUUCUACGGAAGGNAACAANAGCACUGUUUGUGCAGGCGCUGUCGAUCNAUCNAUCNAUG [rRmY clone SEQ 85]”, the Kd in data set [1] (2'-OMe C,U, DPBS Ca Mg) was 240 nM.

The term Kd denotes the concentration at which binding is half-saturated.
